The text below walks through data of PMC5041490.

Holding throughout (experiment): pull-down
Assay [1] concerns the target His-G5(1–739) Y474A (UniProt Q8TEQ6).
Assay [2] deals with His-G5(1–739) wild type (UniProt Q8TEQ6).
Assay [3] has as its target His-G5(1–739) W14A (UniProt Q8TEQ6).
The target in assay [4] is His-G5(1–739) Y15A (UniProt Q8TEQ6).
His-G5(1–739) Y15A, sequence (Q8TEQ6 1-739 Y15A): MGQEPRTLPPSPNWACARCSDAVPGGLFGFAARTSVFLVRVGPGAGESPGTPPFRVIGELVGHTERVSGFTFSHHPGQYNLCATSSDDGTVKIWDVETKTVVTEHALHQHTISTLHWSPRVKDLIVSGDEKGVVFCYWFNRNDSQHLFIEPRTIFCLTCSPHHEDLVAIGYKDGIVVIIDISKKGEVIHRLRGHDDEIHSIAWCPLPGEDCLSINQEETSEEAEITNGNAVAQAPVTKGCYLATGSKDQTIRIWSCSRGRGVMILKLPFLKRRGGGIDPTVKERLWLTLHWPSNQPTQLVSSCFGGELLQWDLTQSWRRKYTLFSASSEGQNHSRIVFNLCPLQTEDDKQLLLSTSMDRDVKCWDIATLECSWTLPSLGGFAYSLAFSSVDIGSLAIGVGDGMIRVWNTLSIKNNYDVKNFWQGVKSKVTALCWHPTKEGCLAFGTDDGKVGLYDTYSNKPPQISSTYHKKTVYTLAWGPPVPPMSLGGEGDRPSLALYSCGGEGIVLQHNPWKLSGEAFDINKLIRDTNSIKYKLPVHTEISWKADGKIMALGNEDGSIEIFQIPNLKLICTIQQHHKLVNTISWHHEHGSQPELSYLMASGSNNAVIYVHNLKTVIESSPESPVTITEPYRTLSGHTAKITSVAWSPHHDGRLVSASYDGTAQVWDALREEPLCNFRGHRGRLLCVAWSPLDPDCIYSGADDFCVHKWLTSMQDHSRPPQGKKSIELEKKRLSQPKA

His-G5(1–739) W14A, sequence (Q8TEQ6 1-739 W14A): as the sequence (Q8TEQ6 1-739 Y15A) above, with W14A, A15Y counted along it
His-G5(1–739) Y474A, sequence (Q8TEQ6 1-739 Y474A): as the sequence (Q8TEQ6 1-739 Y15A) above, with A15Y, Y474A counted along it
His-G5(1–739) wild type, sequence (Q8TEQ6 1-739): as the sequence (Q8TEQ6 1-739 Y15A) above, with A15Y counted along it

Take “80S ribosomes (from UniProt P05388 1-317) (complex)”: the fold P0 signal over the beads-ribosome background in assay [1] was found to be 3 fold; in assay [3], 13.8 fold; in assay [4], 14.4 fold. The substance also came in with a fold P0 signal over the control (beads with 80S, no His protein) in assay [2] of 38.8 fold.
